Data as given in the nanobody polyreactivity screen of Harvey et al. (2022).

Experiment: yeast display, Sf9 membrane polyspecificity reagent, FACS + sequencing; frameworks hold sequencing errors
Procedure, shortened: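 Sorting gates, low and high (top ~1%), were placed on anti-HA fluorescence to track expression and on streptavidin fluorescence to track reagent binding. A clone's polyreactivity label is taken from the gate it came out of. The reagent was 10% biotinylated, detergent-solubilized Sf9 membrane, applied for 1 hour at 4 °C to galactose-induced yeast display cells.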

| Sequence | polyreactivity (PSR sort gate) |
| --- | --- |
| QVQLVESGGGVVQAGGRLRLSCAASGFILGYNDMGWYRPAPGKERELVAAISSSGGSTYYADSVKGRFTISRDNAKNTVYLQMNSLKPEDTAVYYCGLPYQTSYGEYDYWGQGTQVTVSS | low polyreactivity |
| QVQLVESGGGLVQAGGSLRLSCAASGSTFAQNTMGSYRQAPGKERELVATISDGGGSTYYADSVKGRFTISRDNAKNTVYLQMNSLKPEDTAVYYCNTDRFWPSYYWGQGTQVTVSS | low polyreactivity |
| QVQLVESGGGLVQAGGSLRLSCAASGYSFSYNAMGWYRQAPGKERELVAAMSRTGGSTNYADSVKGRFTISRDHAKKTVDLQMNSLKPEDTAVYDCAKRYRYPSWGEYGYWGLGTQVTVSS | high polyreactivity |
| QVQLVESGGGLVQAGGSLRLSCPASGSNFGVYAMAWYRQAPGKERELVAAITSSGGSTYYADSVKGRFTISRDNAKNTVYFQMNSLKPEDTAVYYCSKDSFSHSHYTRYGYWGQGSQVTVSS | low polyreactivity |
| QVQLVESGGGLVQAGGSLRLSCAASGRTFSGYAMGWYRQAPGKERELVAAISSGGGSTYYADSVKGRFTISRDIAKNTVYLQMNSLKPEDTAVYYCAADGYPGDYDYWGQGTQVTVSS | low polyreactivity |
| QDQLVESGGGLVQAGGSLLLSCAASGGIFRFKAMGWYRQARGKERELVAAIIRGGSTYYADSVKGRFTISRDNAKNTVYLQMISLKPEDTAVYDCAADYEYRTKTRDGYYCGQGTQVTVSS | low polyreactivity |
| QVQLVESGGGLVQAGGSLRLSCAASGRIFAAYAMGWYRQAPGKERELVASISRGGSTNYADSVKGRFTISRDNAKNTVYLQMNSLKPEDTAVYYCAARQGSTYYAYYYWGQGTQVTVSS | high polyreactivity |
| QVQLVESGGGLVQAGGSLRLSCAASGSTFAYYTMGWYRQAPGKERELVAAISRRGGSTYYADSVKGRFTISRDNAKNTVYLQMNSLKPEDTAVYYCAASFKGPGYYRYYYWGQGTQVTVSS | high polyreactivity |
| HVQLVESGGGLVQAGGSLRLSCAASGSIFWRYAMGWYRQAPGKERELVAAITWSGGTSYADSVKGRFTISRDNAKNTVYLQMNSLKPEDTAVYYCNADGLSYYLYDYWGQGTQVTVSS | low polyreactivity |
| QVQLVDSGGCLVHAGASLRLSCAASGGIFRTYAMGWARQAAGKERELVAAITFSAGSTFYADSVKGRYTISRDNAKNTVYLQMNSLKPEDTAVYDCATPGYILGLYQYWHHYDYWGQGTQVTVSS | low polyreactivity |
| QVHLVESGGGLVQAGGSLRLSCAATGSIFDQNAMGWYRQAHGKVRELVAAITRGGSTKYADSVKGRFTISRDNAKNTVYLQMNSLKPEDTAVYYCARTARRRYQPYEYWGQGTQVTVSS | low polyreactivity |
| QVQLVESGGGLVQAGGSLRLSCPASGYIFYYNAMGWYRQAPGKERELVAAITSDDSTYYADSVKGRFTISRDNANNTVYLQMNSLKQEDTAVYYCNSVRYGHWYDYWGQGTQVTVSS | low polyreactivity |
| QVQLVDSGGGLVQAGASLRLRCAASVLTLYANAMGRYRQAPGKERELVAGIDNGGSTSYADSVKGRFTISRDNAKKTVYLQKNSLKPEDTAVYYCAAQRDSVGGRHYAQRWIYLMYYWGQGTQVTVSS | low polyreactivity |
| QVQLVESGGGLVQAGGSLRLSCAASGFTFRSYAMGWYRQAPGKERELVAAITSTGGRTYYADSVKGRFTISRDTAKNTVYLQMNSLKPEDTAVYYCAAGRKHYAPVHFGYWGQGTQVTVSS | high polyreactivity |
| QVQLVESGGGLVQAGGSLRLSCAASGRTIDPNAMGWYRQAPGKERELVAAITRTGVRTYYADSVKGRFTISRDNAKNTVYLQMNSLKPEDTAVYYCNRYGARSNDYWGQGTQVTVSS | low polyreactivity |
| QVQLVESGGGIVQAGCSLRLICAASGRIFYSNYMGWYRQAPGKERELVAAISSSGGSTYYADSLKGRFTISRDNANNTVYLQMNSLKPEDTAVYYCNAVHARYRSQGDYWGQGTQVTVSS | low polyreactivity |
| QVQLVESGGGLVQAGGSLRLSCAASGSIYRDYTMGWYRQAPGKERELVAISWSSGGTNYADSVKGRFTISRDNAKNTVYLQMNSLKPEDTAVYYCAADRSTGLGDDDYWGQGTQVTVSS | low polyreactivity |
| QVHLVESGGGLVQAGGSLRLSCDASGFTFYWYAMGWYRQPPGKERELVAAISNRGGSKYYADSVKGRFTISRDNAKNTVYLQMNSLKPEDTAVYYCGAEWYGRMYYWGQGTQVTVSS | high polyreactivity |
| QVQLVESGGGLVQAGGSLRLSCAASGSTFPYYAMGWYRQATGKEREFVASITYGGGSTYYADSVKGRFTISRDNAKNTVYLQMNSLKPEDTAVYYCAAGYIAGRVWYDYWGQGTQVTVSS | low polyreactivity |
| QVQLVESGGGLVQAGGSLRLSCAASGFTFGSNAMGWYRQAPGKERELVAAINYSGVRTYYADSVKGRFTISRDNAKNTVYLQMNSLKPEDTAVYYCAKKRSKRISFDYWGQGTQVTVSS | high polyreactivity |
| QVQLVESGGGIVQAGGSLRLSCAASGLIFSRNAMGWYRQAPGQERELVAAISTGGSTYYADSVKGRFTISRDNAKNTGYLQMNSLKPEDTAVYYCAAAPGYIYEYWGQGTQVTVSS | low polyreactivity |
| QVQLVESGGGLVQAGGSLRLSCAASGFIFNYYGMGWYRQAPGKERELVATISGSGGSTYYADSVKGRFTISRDNAKNTVYLQMNSLKPEDTAVYYCNRYPPVHNVGEAYGTLHGYYWGQGTQVTVSS | low polyreactivity |

| Sequence | polyreactivity (PSR sort gate) |
| --- | --- |
| QVQLVESGGGLVQAGGSLRLICAASGFIFGYNARGWYRQAPGKERELVAAINWSGGRTYYADSVKGRFTISRDNAKKTVYLQMNRLKPEDTAVDYCNGDGSRRYNYWGQGTQVTVSS | low polyreactivity |
| QVQLVESGGGLVQAGGSLRLSCAASGFTFGSNVMGWYRQAPGKERELVATIRRGGSTNYADSVKGRFTISRDNAKNTVYLQMNSLKPEDTAVYYCATGYAVYLSRRDYWGQGTQVTVSS | high polyreactivity |
| QVQLVESGGGLVQAGGSLRLICAASGRTLWSNAMGWYRQAPGKEMELFATISRGGGSTSYADSVKGRFTISRYNAKKTVYLQLYSLKPEDTSVYYCNNYPYIQRTWWYDYWGQGTQVTVSS | high polyreactivity |
| QVQLVESGGGLVQAGGSLRLTCAASGSIFPRYAMGWYREAPGKERELVAAISFRGASTYYADSVKGRFTISRDTEKNTVYLQMNSLKPEDTAVYYWNAVSRSLNYDYWGQGTQVTVSS | high polyreactivity |
| EVQIVESGGCLVQAGGSLGIRCAASGRIFNIYAMGWYRQAPGKERELFAAISRGGGSKYYADSVKGRFTISRDNAKKTVDLQLNRLKPVDTAVYYCNTDRFPSGRIHRYNYWGQGTQVSVSS | low polyreactivity |
| QVQLVESGGGLVQAGGSLRLSCAASGSTFTGYAMGWYRQAPGKEREFVATITKRGGRTYYADSVKGRFTISRDNAKNTVYLQMNSLKPEDTAVYYCARDQGKLVVPYDYWGQGTQVTVSS | high polyreactivity |
| QVQLVESGGGLVQAGGSLRLSCSASGRIFSRYAMGWYRQAPGKERELVATISSGGGTYYADSVKGRFTISRDNAKNTVYLQMNSLKPEDTAVYYCATRYPRKLRVPYDYWGQGTQVTVSS | high polyreactivity |
| QVQLVESGGGLVQAGGSLRISCAASGFSFVWYAMGWYRQAPGKERELVAAINWSGGHTYYADSVKGRFTISRDNAKNTVYLQMNSQKPVETAVYYCNADSLWYWFYPYNYWGQGTQVTVSS | low polyreactivity |
| QVQLVESGGGLVQAGGSLSLSCAASGRTFKYYAMGWYRQAPGKERELVATITWSGTSTNYADSVKGRFTISRDNEKHTVYLQMNSLKPEDTAVYYCAARSKRRNYDYWGQGTQVTVSS | high polyreactivity |
| QVQLVESGGGLVQAGGSLRLSCAASGSTFASHVMGWYRQAPGKERELVAAITRGDRTHYADSVKGRFTISRDNAKNTVYLQMNSLKPEDTAVYYCAKVTTLGRSRDYWGQGTQVTVSS | low polyreactivity |
| QVQLVESGGGLVQAGGSLRLSCAASGSIFRWNAMGWYRQAPGKERDLVDVINSSVGSTYYADSVKGRFTISRDNAKNTVYLQMYSLKPEDTAVYYCAADVELGWGNSVAYEYWGQGTQVTVSS | low polyreactivity |
| QVQLVESGGGLVQAGGSLRLSCAASGYLRVNAMGWYRQAPGTERELVAAITGNGGRTYYADSVKGRFTISRDNAKNTVYLQMNSLKPEDTAVYYCNIAGSSRSWFGSYYWGQGTQVTVSS | high polyreactivity |
| QVQLVESGGGLLHAGGSLRLSCAASGRTFYSNAMGWYRQAPGKERELVASISSRGSTNYADSVKGRFTISRDNAKNTVYLEMNSLKPEDTAVYYCAKRTHQFGVSRSYNTYYYWGHGTQVTVSS | low polyreactivity |
| QVQLVESGGGLVQAGGSLRLSCAASGSTFGWNAMGSYRQAPGKERELVAAISSSGGITYYADSVKGRFTISRDNAKNTVYLQMNSLKPEDTAVYYCAARAINTWFRSGVDYGYYLTMDYWGQGTQVTVSS | low polyreactivity |
| QVQLVESGGGLVQAGGSLPLSCAASGFNFRSYAMGWYRQAPGTERELVAAISSGGSTYYADSVKGRFTISRDNAKNTVYLQMNSLKPEDTAVYYCGASRYYGYGHWGQGTQVTVSS | high polyreactivity |
| QVQLVESGGGLVQAGGSLRLSCAASGFSFSRNTMGWYRQAPGKDRELVATIDRGGRTNYADSVKGRFTISRDNAKNTVYLQMNSLKPEDTAVFYCNAYWRRFPQYDYWGLGTQVTVSS | high polyreactivity |
| KVHLVESGGGLVQAGGSLRLSSAAYGRTFYNNAMGWYIQAPGKERELVAAISGRGGSTYYADSLKGRFTISRDNAKNTVYVQMNILKPEDTAVYYCAATVKYSPIYDYWGQGTQVSVSS | high polyreactivity |
| QVQLVESGGGLVQAGGSLRLSCAASGLIFFFYAMGWYRQAPGKERELVAAISSGGTTNYADSVKGRFTISRDNAKNTVYLQMNSLKPEDTAVYYCAARPSTYWSLGQHYGISGYWGQGTQVTVSS | low polyreactivity |
| QVQLVESGGGLVQAGGSLRLSCAASGLILHKYAMGGSRQAPGKERELVASINSGANTNYADSVKGRFTISRDNAKNTVYLQMNSLKPEDTAVYYCNADPGFRSGDYGYSSFDYWGQGTQVTVSS | low polyreactivity |
| QVQLVESGGGLVQAGGSLRFSCAASGSIFFNNAMGWYRQAPGKERELVAAITTGGSTYYADSVKGRFTISRDNAKNTVYLQMNSLKPEDTAVYYCAAVVVYPYRLGYDYWGQGTQVTVSS | low polyreactivity |
| QVQLVESGGGLVQAGGSLRLSCAASGRTFRYYAMGWYRQAPGKERELVAAITSADSTNYADSVKGRFTISRDNAKNTVYLQMNSLKPEDTAVYYCAAGYVYQAAAKYGRIFWGYDSWGQGSQVTVSS | low polyreactivity |
